Columns and labels:
[1] = biological target: carboxy-terminal domain of Saccharomyces cerevisiae RNA polymerase II subunit RPB1 (yCTD) (Saccharomyces cerevisiae); assay: dynamic light scattering + microscopy; tag-free CTD alone, no crowding agents; 25 mM HEPES, 1.0 mM TCEP, pH 7.4 (also pH 6.2), 50-1000 mM NaCl, rising temperature; self-coacervation into droplets
[2] = biological target: carboxy-terminal domain of human RNA polymerase II subunit RPB1 (hCTD) (human) (UniProt P24928); assay: as above

In the case of “carboxy-terminal domain of Saccharomyces cerevisiae RNA polymerase II subunit RPB1 (yCTD) (domain or fragment)”, the minimal concentration of droplet formation [1] is reported as 100 µM.
“carboxy-terminal domain of human RNA polymerase II subunit RPB1 (hCTD) (from UniProt P24928 1593-1970) (domain or fragment)” showed a minimal concentration of droplet formation [2] of 25 µM.

— publication PMC10519987
